# According to patent publication US20260042850A1 (LOCKBODY THERAPEUTICS, published 2026):
# Positions count from the first letter of the chain named.
# B1: MH4 (antibody, IgG4, V domains shown)
# VH: QVQLVQSGAEVKKPGASVKVSCKASGYTFTSYTMHWVRQAPGQGLEWMGWINPSGGSTSYAQKFQGRVTMTRDTSTSTVYMELSSLRSEDTAVYYCARQEITTEFDYWGQGTLVTVSS
# VL: EIVLTQSPGTLSLSPGERATLSCRASQSVSSYANSYLHWYQQKPGQAPRLLIYRGSTRESGIPDRFSGSGSGTDFTLTISRLEPEDFAVYYCQQSKSEPLTFGGGTKVEIK
# B2: Grafted clone (Graft), IGHV1-46/IGKV3-20 CDR graft of 224G11 (antibody, human IgG4, V domains shown)
# VH: B1 VH with T28I, S31A, N52K, S54N, G55N, S57L, T58A, S59N, Q99S
# VL: B1 VL with S30D, Y36F, G55A, S97E, E98D
# notes: also called VH graft/VL graft
# B3: MH7-1 (antibody, human IgG4, V domains shown)
# VH: B1 VH with W50I
# VL: B1 VL with S60T
# B4: 08B12 (antibody, IgG4, V domains shown)
# VH: B1 VH with T28I, S31A, T33S, N52K, S54N, G55N, S59N, Q99T
# VL: B1 VL with S30D, S60T, E98D
# B5: 04F09 (antibody, IgG4, V domains shown)
# VH: B1 VH with T28I, T33S, G55N, S57L, T58A, S59N, Y107I
# VL: B1 VL with S30E, N34Q, E98D
# B6: 08G07 (antibody, human IgG4, V domains shown)
# VH: B1 VH with S57L, T58A, S59N, Q99S, E104D
# VL: B1 VL with S30D
# B7: MH12 (antibody, IgG4, V domains shown)
# VH: B1 VH with T33A
# VL: B1 VL with N34Q, S60T, S95Y, K96G, E98S
# B8: 07C10 (antibody, IgG4, V domains shown)
# VH: B1 VH with T28I, S31A, T33S, W50I, N52K, G55N, S59N, Q99A
# VL: B1 VL with S30E, N34Q, S97E
# B9: MH11 (antibody, IgG4, V domains shown)
# VH: B1 VH with T33A
# VL: B1 VL with N34Q, S60T, K96G, E98S
# B10: 09E04 (antibody, IgG4, V domains shown)
# VH: B1 VH with T28I, S54N
# VL: B1 VL with S30E, S95Y, K96G
# B11: MH3 (antibody, IgG4, V domains shown)
# VH: B1 VH with S54N
# VL: B1 VL with N34Q, S60T, S95Y, K96G, E98S
# notes: also called MH03
# B12: MH5 (antibody, IgG4, V domains shown)
# VH: B1 VH
# VL: B1 VL with N34Q, S60T, K96G, E98S
# B13: 09B08 (antibody, IgG4, V domains shown)
# VH: B1 VH with S54N, G55N, S59N, Q99S, E104D
# VL: B1 VL with E98D
# B14: MH6 (antibody, IgG4, V domains shown)
# VH: B1 VH
# VL: B1 VL with N34Q, S60T, S95Y, K96G, E98S
# B15: MH2 (antibody, IgG4, V domains shown)
# VH: B1 VH with S54N
# VL: B1 VL with N34Q, S60T, K96G, E98S
# B16: MH1 (antibody, IgG4, V domains shown)
# VH: B1 VH with S54N
# VL: B1 VL
# Target: T1, cynomolgus monkey C-MET His tag, monomeric (cynomolgus monkey, UniProt A0M8R7 25-932 (Papio anubis entry))
# T1 construct: also called monomeric cyno C-MET; cyCMET
# Test: SPR Biacore, IgG captured, monomeric C-MET-His analyte
# Experimental: (§1) Affinity (KD) of purified IgGs was determined via SPR with antigen in-solution on a Biacore® 3000 (GE). A mouse anti-human antibody (CH1 specific) was immobilized on a CM5 Sensor Chip to a level of 2000 RU in acetate buffer at pH 4.5 using amine coupling following the Wizard instructions for two channels. One channel was used for background signal correction. The standard running buffer HBS-EP pH 7.4 was used. Regeneration was performed with a single injection of 10 μl of 10 mM Glycine at pH 1.5 at 20 μl/minute. IgG samples were injected for 2 minutes at 50 nM at 30 μl/min followed by and off-rate of 60 seconds. The monomeric antigen (human C-MET His tagged or cynomolgus monkey C-MET His tag) was injected in two fold serial dilutions from 100 nM down to 6 nM, for 2 minutes at 30 μl/min followed by an off-rate of 300 seconds. The obtained sensorgrams were analysed using the Biacore® 3000 evaluation (BIAevaluation) software. The KD was calculated by simultaneous fitting of the association and dissociation phases to a 1:1 Langmuir binding model.
# T1 sequence (A0M8R7 25-932 S170N/I621T): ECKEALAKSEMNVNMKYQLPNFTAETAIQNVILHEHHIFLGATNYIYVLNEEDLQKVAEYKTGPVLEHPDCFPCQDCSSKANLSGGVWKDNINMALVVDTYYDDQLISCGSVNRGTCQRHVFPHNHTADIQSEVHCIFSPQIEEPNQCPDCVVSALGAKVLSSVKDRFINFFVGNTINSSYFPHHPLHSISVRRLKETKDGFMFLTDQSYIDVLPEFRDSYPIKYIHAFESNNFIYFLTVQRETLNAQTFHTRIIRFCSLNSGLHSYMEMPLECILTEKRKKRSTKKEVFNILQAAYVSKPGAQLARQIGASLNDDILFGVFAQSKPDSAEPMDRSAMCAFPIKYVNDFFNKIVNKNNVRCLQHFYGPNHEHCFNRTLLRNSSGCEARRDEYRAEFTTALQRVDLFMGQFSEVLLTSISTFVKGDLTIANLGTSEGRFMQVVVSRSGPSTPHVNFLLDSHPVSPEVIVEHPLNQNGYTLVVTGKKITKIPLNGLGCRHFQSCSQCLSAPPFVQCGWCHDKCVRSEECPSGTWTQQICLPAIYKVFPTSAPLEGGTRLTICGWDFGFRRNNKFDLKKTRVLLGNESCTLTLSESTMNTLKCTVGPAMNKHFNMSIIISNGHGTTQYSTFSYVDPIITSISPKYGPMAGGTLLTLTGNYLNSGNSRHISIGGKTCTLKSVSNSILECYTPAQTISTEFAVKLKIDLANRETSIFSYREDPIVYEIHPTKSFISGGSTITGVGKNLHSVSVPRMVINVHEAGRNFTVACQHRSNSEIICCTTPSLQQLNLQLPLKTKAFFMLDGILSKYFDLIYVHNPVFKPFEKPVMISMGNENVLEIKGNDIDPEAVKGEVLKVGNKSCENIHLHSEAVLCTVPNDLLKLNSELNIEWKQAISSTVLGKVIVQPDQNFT
Kd,koff,kon,Binder
0.19 nM,4.9e-05 s⁻¹,260000 M⁻¹ s⁻¹,B1
0.22 nM,5.2e-05 s⁻¹,230000 M⁻¹ s⁻¹,B2
1.1 nM,0.000198 s⁻¹,181000 M⁻¹ s⁻¹,B3
8.1 nM,0.00043 s⁻¹,54000 M⁻¹ s⁻¹,B4
0.19 nM,5.6e-05 s⁻¹,290000 M⁻¹ s⁻¹,B5
0.24 nM,2.4e-05 s⁻¹,100000 M⁻¹ s⁻¹,B6
4 nM,0.00043 s⁻¹,110000 M⁻¹ s⁻¹,B7
3.2 nM,0.00021 s⁻¹,65000 M⁻¹ s⁻¹,B8
1.2 nM,0.00018 s⁻¹,150000 M⁻¹ s⁻¹,B9
0.39 nM,6.4e-05 s⁻¹,170000 M⁻¹ s⁻¹,B10
4.1 nM,0.00062 s⁻¹,150000 M⁻¹ s⁻¹,B11
1.3 nM,0.00021 s⁻¹,170000 M⁻¹ s⁻¹,B12
0.2 nM,1.2e-05 s⁻¹,60000 M⁻¹ s⁻¹,B13
4 nM,0.00063 s⁻¹,160000 M⁻¹ s⁻¹,B14
0.87 nM,0.00021 s⁻¹,240000 M⁻¹ s⁻¹,B15
0.14 nM,2.6e-05 s⁻¹,180000 M⁻¹ s⁻¹,B16

# Target: T2, human C-MET His tagged, monomeric (human, UniProt P08581 25-932)
# T2 construct: also called monomeric human C-MET; biotinylated human C-MET-His
# Test: as above
# Experimental: as §1
# T2 sequence (P08581 25-932): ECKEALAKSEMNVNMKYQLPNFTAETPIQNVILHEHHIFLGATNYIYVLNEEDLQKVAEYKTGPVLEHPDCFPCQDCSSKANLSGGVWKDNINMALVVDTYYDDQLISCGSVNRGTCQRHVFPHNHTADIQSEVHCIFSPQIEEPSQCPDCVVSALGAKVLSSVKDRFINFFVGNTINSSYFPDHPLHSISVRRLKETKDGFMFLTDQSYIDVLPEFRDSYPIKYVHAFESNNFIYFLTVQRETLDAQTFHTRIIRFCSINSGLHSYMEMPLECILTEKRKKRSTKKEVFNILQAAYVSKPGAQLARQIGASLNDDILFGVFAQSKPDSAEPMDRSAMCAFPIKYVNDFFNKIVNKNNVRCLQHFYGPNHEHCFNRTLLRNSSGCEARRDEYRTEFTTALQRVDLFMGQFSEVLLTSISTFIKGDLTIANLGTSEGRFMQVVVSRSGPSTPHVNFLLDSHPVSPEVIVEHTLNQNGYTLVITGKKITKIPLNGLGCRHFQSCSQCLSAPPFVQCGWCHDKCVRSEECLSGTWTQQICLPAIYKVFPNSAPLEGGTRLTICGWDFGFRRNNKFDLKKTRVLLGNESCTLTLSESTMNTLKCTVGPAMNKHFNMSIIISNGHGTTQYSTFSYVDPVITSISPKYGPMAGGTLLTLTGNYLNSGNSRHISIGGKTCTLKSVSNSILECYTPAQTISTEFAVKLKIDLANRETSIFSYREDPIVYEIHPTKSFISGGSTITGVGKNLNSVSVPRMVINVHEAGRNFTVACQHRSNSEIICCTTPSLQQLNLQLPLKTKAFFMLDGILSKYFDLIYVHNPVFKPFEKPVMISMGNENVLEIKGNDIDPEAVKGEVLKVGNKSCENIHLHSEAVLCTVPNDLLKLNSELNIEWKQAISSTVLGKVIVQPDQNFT
Kd,koff,kon,Binder
0.28 nM,2.5e-05 s⁻¹,87000 M⁻¹ s⁻¹,B1
0.37 nM,3.7e-05 s⁻¹,99000 M⁻¹ s⁻¹,B2
1.54 nM,0.000151 s⁻¹,97900 M⁻¹ s⁻¹,B3
8.4 nM,0.00031 s⁻¹,37000 M⁻¹ s⁻¹,B4
0.13 nM,1.8e-05 s⁻¹,140000 M⁻¹ s⁻¹,B5
0.12 nM,7.54e-06 s⁻¹,63400 M⁻¹ s⁻¹,B6
6.5 nM,0.00037 s⁻¹,56000 M⁻¹ s⁻¹,B7
0.78 nM,9.4e-05 s⁻¹,120000 M⁻¹ s⁻¹,B8
2.6 nM,0.00016 s⁻¹,62000 M⁻¹ s⁻¹,B9
0.18 nM,1.6e-05 s⁻¹,85000 M⁻¹ s⁻¹,B10
7.6 nM,0.00051 s⁻¹,68000 M⁻¹ s⁻¹,B11
2 nM,0.00015 s⁻¹,77000 M⁻¹ s⁻¹,B12
1.1 nM,4.1e-05 s⁻¹,37000 M⁻¹ s⁻¹,B13
8.2 nM,0.00053 s⁻¹,65000 M⁻¹ s⁻¹,B14
2.5 nM,0.00018 s⁻¹,73000 M⁻¹ s⁻¹,B15
0.75 nM,7.11e-05 s⁻¹,94700 M⁻¹ s⁻¹,B16

# Target: T3, human C-MET on stably transfected CHO-K1 cells (human, UniProt P08581 25-1390)
# T3 construct: also called hucMET; human C-MET+ CHO-K1 cells
# Test: flow cytometry, C-MET CHO-K1 cells
# Experimental: (§2) Purified IgGs were tested in FACs for binding to human and cyno C-MET expressed on CHO-K1 stable cell lines and CHO-K1 wild-type cells. The IgG samples were titrated in three-fold serial dilutions starting at 500 nM to 0.08 nM. Binding of IgGs was detected with a mouse anti-human IgG conjugated to FITC. Results were analyzed by examining the Mean Fluorescence Intensity (MFI) of 10000 cells per sample in the BL-1 channel detector of a flow cytometer (Attune™ NxT Acoustic Focusing Cytometer, Invitrogen/ThermoFisher Scientific).
# (§3) Antibodies to C-MET were analysed for concentration-dependent binding at the cell surface via flow cytometry. CHO-K1 cells were stably transfected with either human or cyno C-MET full-length cDNAs. Anti-C-MET IgGs and an isotype control IgG4(S228P) were then all tested in IgG4(S228P) format, over a concentration range of 500-0.08 nM for binding to human (FIG. 5A) and cyno (FIG. 5B) CHO-K1 cells.
# T3 sequence (P08581 25-1390 limits assumed): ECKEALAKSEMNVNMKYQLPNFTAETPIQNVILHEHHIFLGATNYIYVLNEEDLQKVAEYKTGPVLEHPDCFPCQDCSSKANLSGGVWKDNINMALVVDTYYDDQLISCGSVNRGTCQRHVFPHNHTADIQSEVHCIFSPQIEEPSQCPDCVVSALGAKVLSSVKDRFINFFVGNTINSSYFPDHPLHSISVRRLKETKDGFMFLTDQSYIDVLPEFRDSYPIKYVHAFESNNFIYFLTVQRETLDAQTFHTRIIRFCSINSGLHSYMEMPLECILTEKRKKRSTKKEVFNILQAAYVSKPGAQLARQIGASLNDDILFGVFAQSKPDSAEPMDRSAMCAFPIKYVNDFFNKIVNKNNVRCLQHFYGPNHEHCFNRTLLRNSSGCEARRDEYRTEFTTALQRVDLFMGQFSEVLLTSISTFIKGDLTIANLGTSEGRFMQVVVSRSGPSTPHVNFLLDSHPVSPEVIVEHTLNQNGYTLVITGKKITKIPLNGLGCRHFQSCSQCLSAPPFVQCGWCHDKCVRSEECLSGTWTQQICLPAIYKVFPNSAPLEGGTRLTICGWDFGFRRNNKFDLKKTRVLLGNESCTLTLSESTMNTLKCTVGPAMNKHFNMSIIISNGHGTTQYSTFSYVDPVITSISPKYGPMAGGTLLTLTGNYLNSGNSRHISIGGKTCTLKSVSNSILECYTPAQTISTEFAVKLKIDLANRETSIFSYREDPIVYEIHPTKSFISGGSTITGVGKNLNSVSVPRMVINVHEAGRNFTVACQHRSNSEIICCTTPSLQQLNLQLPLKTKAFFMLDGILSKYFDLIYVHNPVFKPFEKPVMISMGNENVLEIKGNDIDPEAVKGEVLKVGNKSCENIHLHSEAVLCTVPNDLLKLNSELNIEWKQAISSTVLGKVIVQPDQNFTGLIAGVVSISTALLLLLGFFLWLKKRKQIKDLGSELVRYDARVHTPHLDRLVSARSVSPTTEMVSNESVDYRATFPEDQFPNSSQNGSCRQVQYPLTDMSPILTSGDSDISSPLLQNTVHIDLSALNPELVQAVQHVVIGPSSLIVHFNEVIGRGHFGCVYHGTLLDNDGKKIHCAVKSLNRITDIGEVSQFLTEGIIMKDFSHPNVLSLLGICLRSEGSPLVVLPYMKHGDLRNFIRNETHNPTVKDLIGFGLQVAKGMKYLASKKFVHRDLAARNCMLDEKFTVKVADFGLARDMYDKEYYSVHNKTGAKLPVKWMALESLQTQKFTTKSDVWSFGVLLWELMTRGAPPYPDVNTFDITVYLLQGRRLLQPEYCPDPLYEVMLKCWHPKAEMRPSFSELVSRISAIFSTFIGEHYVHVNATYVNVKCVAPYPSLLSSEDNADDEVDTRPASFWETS
row,"maximum MFI, fold over Isotype IgG4 background",Binder
1,> 10 fold,B1
2,> 10 fold,B2
3,> 10 fold,B3
4,> 10 fold,B4
5,> 10 fold,B5
6,> 10 fold,B6
7,> 10 fold,B7
8,> 10 fold,B8
9,> 10 fold,B9
10,> 10 fold,B10
11,> 10 fold,B11
12,> 10 fold,B12
13,> 10 fold,B13
14,> 10 fold,B14
15,> 10 fold,B15
16,> 10 fold,B16

# Target: T4, cynomolgus monkey C-MET on stably transfected CHO-K1 cells (cynomolgus monkey, UniProt A0M8R7 25-1381 (Papio anubis entry))
# T4 construct: also called cycMET; cyno C-MET+ CHO-K1 cells
# Test: flow cytometry, C-MET CHO-K1 cells
# Experimental: as §2, §3
# T4 sequence (A0M8R7 25-1381 S170N/I621T limits assumed): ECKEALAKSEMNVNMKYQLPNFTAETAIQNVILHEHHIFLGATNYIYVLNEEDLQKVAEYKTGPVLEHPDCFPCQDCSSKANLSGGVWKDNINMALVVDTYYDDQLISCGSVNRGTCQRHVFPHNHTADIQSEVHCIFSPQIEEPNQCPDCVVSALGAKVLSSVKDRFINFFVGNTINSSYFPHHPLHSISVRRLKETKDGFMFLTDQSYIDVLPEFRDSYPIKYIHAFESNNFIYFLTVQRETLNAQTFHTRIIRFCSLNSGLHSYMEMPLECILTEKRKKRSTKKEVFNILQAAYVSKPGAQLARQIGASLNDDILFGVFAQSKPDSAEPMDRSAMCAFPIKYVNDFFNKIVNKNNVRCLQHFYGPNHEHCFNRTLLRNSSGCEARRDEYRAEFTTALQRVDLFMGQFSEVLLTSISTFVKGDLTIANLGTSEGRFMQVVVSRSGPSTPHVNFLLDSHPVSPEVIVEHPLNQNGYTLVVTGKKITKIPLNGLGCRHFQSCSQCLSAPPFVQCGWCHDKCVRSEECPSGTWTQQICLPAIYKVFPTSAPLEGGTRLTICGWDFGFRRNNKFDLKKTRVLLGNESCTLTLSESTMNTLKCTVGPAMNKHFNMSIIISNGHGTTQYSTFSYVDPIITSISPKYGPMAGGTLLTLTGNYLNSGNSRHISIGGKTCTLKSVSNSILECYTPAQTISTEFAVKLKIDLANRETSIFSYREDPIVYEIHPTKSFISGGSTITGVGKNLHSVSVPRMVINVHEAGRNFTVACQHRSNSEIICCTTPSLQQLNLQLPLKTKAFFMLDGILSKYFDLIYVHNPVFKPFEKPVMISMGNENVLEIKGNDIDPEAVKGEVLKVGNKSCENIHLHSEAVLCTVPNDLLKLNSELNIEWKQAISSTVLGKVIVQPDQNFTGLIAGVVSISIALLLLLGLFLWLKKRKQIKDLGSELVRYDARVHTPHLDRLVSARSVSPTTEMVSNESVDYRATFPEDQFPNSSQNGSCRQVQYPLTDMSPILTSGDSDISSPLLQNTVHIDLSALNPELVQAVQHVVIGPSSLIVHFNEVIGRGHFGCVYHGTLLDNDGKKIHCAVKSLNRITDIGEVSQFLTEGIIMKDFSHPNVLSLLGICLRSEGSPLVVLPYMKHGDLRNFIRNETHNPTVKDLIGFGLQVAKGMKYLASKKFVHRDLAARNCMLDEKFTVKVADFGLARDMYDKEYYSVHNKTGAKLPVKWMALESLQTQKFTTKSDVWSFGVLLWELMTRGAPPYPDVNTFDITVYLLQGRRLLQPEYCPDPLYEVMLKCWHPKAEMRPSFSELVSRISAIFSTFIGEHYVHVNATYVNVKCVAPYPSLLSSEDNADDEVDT
row,"maximum MFI, fold over Isotype IgG4 background",Binder
1,> 10 fold,B1
2,> 10 fold,B2
3,> 10 fold,B3
4,> 10 fold,B4
5,> 10 fold,B5
6,> 10 fold,B6
7,> 10 fold,B7
8,> 10 fold,B8
9,> 10 fold,B9
10,> 10 fold,B10
11,> 10 fold,B11
12,> 10 fold,B12
13,> 10 fold,B13
14,> 10 fold,B14
15,> 10 fold,B15
16,> 10 fold,B16

# Target: T5, Insulin
# T5 construct: Coated surface of the polyreactivity (development risk) ELISA
# Test: polyreactivity ELISA on insulin
# Design: scale not given here
# T5 sequence (P01308 25-54, chain 1 of 2): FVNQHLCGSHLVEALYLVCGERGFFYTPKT
# T5 sequence (P01308 90-110, chain 2 of 2): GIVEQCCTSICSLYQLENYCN
row,reactivity score,Binder
1,1,B3
2,1,B6

# Target: T3, human C-MET on stably transfected …
# Test: flow cytometry, C-MET CHO-K1 cells
# Remark: another data set of the same source
# Experimental: as §2
row,EC50,Binder
1,1.72 nM,B1
2,11.7 nM,B4
3,12.4 nM,B5
4,4.19 nM,B6
5,1.25 nM,B7
6,9.59 nM,B8
7,1.68 nM,B9
8,2.9 nM,B10
9,1.66 nM,B11
10,1.76 nM,B12
11,9.3 nM,B13
12,1.33 nM,B14
13,1.59 nM,B15
14,2.02 nM,B16

# Target: T4, cynomolgus monkey C-MET on stably …
# Test: flow cytometry, C-MET CHO-K1 cells
# Remark: another data set of the same source
# Experimental: as §2
row,EC50,Binder
1,0.48 nM,B1
2,1.34 nM,B4
3,0.64 nM,B5
4,0.68 nM,B6
5,0.51 nM,B7
6,2.82 nM,B8
7,0.69 nM,B9
8,1.11 nM,B10
9,0.27 nM,B11
10,0.3 nM,B12
11,3.78 nM,B13
12,0.72 nM,B14
13,0.34 nM,B15
14,0.26 nM,B16

# Target: T1, cynomolgus monkey C-MET His tag, …
# Test: SPR Biacore, monomeric cyno against monomeric human C-MET
# Experimental: as §1
row,"cyno C-MET affinity, fold of the human C-MET affinity",Binder
1,≤ 2 fold,B1
2,≤ 2 fold,B5
3,≤ 2 fold,B6
4,≤ 2 fold,B10
